Test results taken from paper PMC7251212, “Molecular Insight into TdfH-Mediated Zinc Piracy from Human Calprotectin by Neisseria gonorrhoeae” (mBio, 2020).

B1: total knockout human calprotectin (both Zn binding sites mutated) (complex)
chain 1: MLTELEKALNSIIDVYNKYSLIKGNFNAVYRDDLKKLLETECPQYIRKKGADVWFKELDINTDGAVNFQEFLILVIKMGVAANKKSNEESHKE
chain 2: MTCKMSQLERNIETIINTFNQYSVKLGHPSTLNQGEFKELVRKDLQNFLKKENKNEKVIEHIMEDLDTNADKQLSFEEFIMLMARLTWASNEKMNEGDEGPGHHHKPGLGEGTP
modifications: Positions are not printed here. They follow the cited calprotectin site-knockout constructs and fit the printed counts (4 His-Asn in site 1; 3 His-Asn plus Asp-Ser in site 2). Cys kept as wild type …
B2: total knockout hCP (complex)
chain 1: B1 chain 1
chain 2: B1 chain 2
modifications: Same construct as m7. Positions come from the cited constructs and are not printed here.

How the values were obtained:
[1] = molecular target: T1, recombinant TdfH (Neisseria gonorrhoeae TonB-dependent transporter, NGO0952) (Neisseria gonorrhoeae, UniProt A0ACH0F8A9 1-922); test: ITC; Nano ITC, 25°C, 1x PBS with 0.05% DDM; TdfH (300 μl, 20 μM) in the cell, CP sample (200 μM) in 20 injections of 2.5 μl; fitted with NanoAnalyze to a two-state (multisite) model, TKO to a single-site model; conditions: both partners purified
T1 construct: TdfH, Neisseria gonorrhoeae, locus NGO0952; full-length tdfH gene, codon-optimised for E. coli; The tag of pHIS2 is not described: the N-terminal 10x His tag and TEV site are told of the modified pET20b vector, which was not the source of the protein used; also called recombinantly produced TdfH; purified TdfH; not shown: His tag (from the Ni-NTA purification)
T1 sequence: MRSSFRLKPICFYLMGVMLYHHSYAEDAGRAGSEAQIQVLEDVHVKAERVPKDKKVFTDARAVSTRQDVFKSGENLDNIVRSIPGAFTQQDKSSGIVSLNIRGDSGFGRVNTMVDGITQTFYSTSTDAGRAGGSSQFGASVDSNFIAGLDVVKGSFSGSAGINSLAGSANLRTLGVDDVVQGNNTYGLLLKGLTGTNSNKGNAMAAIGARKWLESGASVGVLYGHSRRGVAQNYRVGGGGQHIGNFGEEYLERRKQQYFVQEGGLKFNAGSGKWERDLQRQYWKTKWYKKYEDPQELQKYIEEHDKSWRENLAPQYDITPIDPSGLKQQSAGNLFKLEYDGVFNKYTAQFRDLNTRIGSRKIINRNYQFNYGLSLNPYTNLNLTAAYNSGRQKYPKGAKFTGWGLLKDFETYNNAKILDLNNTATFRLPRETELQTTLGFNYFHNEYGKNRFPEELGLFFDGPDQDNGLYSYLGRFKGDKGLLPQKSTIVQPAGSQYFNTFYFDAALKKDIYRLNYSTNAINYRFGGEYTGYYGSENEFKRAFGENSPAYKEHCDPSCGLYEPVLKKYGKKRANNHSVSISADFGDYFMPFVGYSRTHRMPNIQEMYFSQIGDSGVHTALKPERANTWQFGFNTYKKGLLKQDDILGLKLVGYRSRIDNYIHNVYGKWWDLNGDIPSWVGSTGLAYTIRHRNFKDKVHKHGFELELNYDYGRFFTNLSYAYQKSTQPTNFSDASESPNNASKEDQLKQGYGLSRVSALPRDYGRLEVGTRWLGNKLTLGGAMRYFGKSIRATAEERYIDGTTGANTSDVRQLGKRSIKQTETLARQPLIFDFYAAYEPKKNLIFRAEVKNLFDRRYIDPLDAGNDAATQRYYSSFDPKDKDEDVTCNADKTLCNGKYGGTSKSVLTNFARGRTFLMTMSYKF

TdfH = molecular target: T2, TdfH (Neisseria gonorrhoeae, UniProt A0ACH0F8A9 1-922); test: ITC; CP sample (200 uM) injected into TdfH (300 ul at 20 uM) in the cell, 20 injections of 2.5 ul every 300 s, 25 C, 1x PBS with 0.05% DDM; fitted with NanoAnalyze (multi-site model; independent model for TKO); conditions: both partners purified
T2 construct: TdfH, TonB-dependent transporter of Neisseria gonorrhoeae, locus NGO0952; full-length tdfH gene, codon optimised for E. coli; In 0.05% DDM; also called recombinant TdfH; NGO0952

Binder | Kd [1] | stoichiometry N (TdfH)
B1 | 13 µM | 
B2 |  | 0.67 ± 0.12
